Results published in patent US20250115654A1, “PHARMACEUTICAL COMPOSITION OF GLP-1 RECEPTOR AND GIP RECEPTOR DUAL AGONIST, AND USE THEREOF” (FUJIAN SHENGDI PHARMACEUTICAL CO., LTD., priority 2021, published 2025).
Like-named read-outs stand apart in the source and are kept apart here. Numbered stars: 1 amine (or outer) side, 2 acyl side, 3 side chain; on linkers, the order of the positions; unused ones are H or OH. Square brackets hold non-standard residues; d marks the D form. Side chains are listed from the residue outwards. Peptide text beside a SMILES is read from it. * marks the point of attachment. C20 diacid = O=C(O)CCCCCCCCCCCCCCCCCCC(=O)*; γGlu = O=C(O)[C@H](CCC(=O)[*:2])N[*:1]; AEEA = NCCOCCOCC(=O)O; Aib = CC(C)(N)C(=O)O

T1: human GIPR (Homo sapiens, UniProt P48546)
T1 construct: expressed in transfected cells; host or cells: wild-type CHO-K1, transient transfection with hGIP receptor plasmid (Fugene HD)
T1 sequence (P48546 22-466): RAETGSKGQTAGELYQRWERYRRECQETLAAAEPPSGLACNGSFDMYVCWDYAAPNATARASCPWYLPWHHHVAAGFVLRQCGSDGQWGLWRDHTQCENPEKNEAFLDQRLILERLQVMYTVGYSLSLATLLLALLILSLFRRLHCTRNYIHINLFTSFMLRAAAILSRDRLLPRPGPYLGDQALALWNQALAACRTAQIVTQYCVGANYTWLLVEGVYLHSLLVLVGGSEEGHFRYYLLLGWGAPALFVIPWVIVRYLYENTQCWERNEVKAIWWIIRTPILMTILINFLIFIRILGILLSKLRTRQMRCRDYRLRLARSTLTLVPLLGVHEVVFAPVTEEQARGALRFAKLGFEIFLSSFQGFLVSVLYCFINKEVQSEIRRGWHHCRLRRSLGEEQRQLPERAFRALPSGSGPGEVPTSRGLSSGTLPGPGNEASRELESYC

T2: human glucose-dependent insulinotropic polypeptide receptor (GIPR) (human, UniProt P48546)
T2 sequence: T1 sequence (P48546 22-466)


Assays:
human GIPR = target: T1, human GIPR; test: Agonist activity against GIPR, cAMP HTRF in CHO-K1 cells transiently transfected with hGIP receptor; assay type: cell-based
Protocol: Wild-type CHO-K1 cells were collected, and the cell suspension was adjusted to an appropriate density, seeded in a 6-well plate at 2 mL/well, and placed in an incubator at 37° C. with 5% CO2 for adherence culture overnight.

[1] = Stability of compounds in human plasma (LC-MS); assay type: in vitro ADME; details: human, read-out: Relative content of compounds retained in plasma (%)
Protocol: 5 μL of each of samples at concentrations of 20 ng/mL, 50 ng/mL, 100 ng/mL, 200 ng/mL, 500 ng/mL, 1000 ng/mL, 2000 ng/mL, 5000 ng/mL, and 10000 ng/mL was added to 45 L of human plasma. The content of the compounds in the samples was determined by the LC-MS method and a standard curve was formed. 5 μL of a 1 mg/mL polypeptide solution was added to 45 μL of human plasma. […] With the content at 0 min as the standard (100%), the relative content of the retained compounds in the samples at other time points was calculated.

[2] = target: human glucagon-like peptide-1 receptor (GLP-1R) (human, UniProt P43220); test: cell-based or functional assay
[3] = target: T2, human glucose-dependent insulinotropic …; test: cell-based or functional assay
[4] = Table 6 run, read-out: Activity against human GIPR (EC50 nM)

Row | Molecule | Activity against human GLP-1R (EC50 nM); cAMP, HTRF [2] [nM] | Activity against human GIPR (EC50 nM); cAMP, HTRF [3] [nM] | also measured
1 | CC[C@H](C)[C@H](NC(=O)[C@H](CC(C)C)NC(=O)[C@H](Cc1c[nH]c2ccccc12)NC(=O)[C@H](CCC(N)=O)NC(=O)[C@@H](NC(=O)[C@H](Cc1ccccc1)NC(=O)[C@H](C)NC(=O)[C@H](CCCCNC(=O)COCCOCCNC(=O)COCCOCCNC(=O)CC[C@H](NC(=O)CCCCCCCCCCCCCCCCCCC(=O)O)C(=O)O)NC(=O)[C@H](CCC(N)=O)NC(=O)[C@H](C)NC(=O)[C@@H](NC(=O)[C@H](CCCCN)NC(=O)[C@H](CC(=O)O)NC(=O)[C@H](CC(C)C)NC(=O)C(C)(C)NC(=O)[C@@H](NC(=O)[C@H](CO)NC(=O)[C@H](Cc1ccc(O)cc1)NC(=O)[C@H](CC(=O)O)NC(=O)[C@H](CO)NC(=O)[C@@H](NC(=O)[C@H](Cc1ccccc1)NC(=O)[C@@H](NC(=O)CNC(=O)[C@H](CCC(=O)O)NC(=O)C(C)(C)NC(=O)[C@@H](N)Cc1ccc(O)cc1)[C@@H](C)O)[C@@H](C)O)[C@@H](C)CC)[C@@H](C)CC)C(C)C)C(=O)N[C@@H](C)C(=O)NCC(=O)NCC(=O)N1CCC[C@H]1C(=O)N[C@@H](CO)C(=O)N[C@@H](CO)C(=O)NCC(=O)N[C@@H](C)C(=O)N1CCC[C@H]1C(=O)N1CCC[C@H]1C(=O)N1CCC[C@H]1C(=O)N[C@@H](CO)C(N)=O [LY3298176, reference compound] | – | – | EC50 (human GIPR): 0.031 nM; remaining at 1 h, 0.1 mg/mL ([1]; 60 min): 115%; remaining at 2 h, 0.1 mg/mL ([1]; 120 min): 118%; remaining at 4 h, 0.1 mg/mL ([1]; 240 min): 113%
2 | CC[C@H](C)[C@H](NC(=O)[C@H](CCCNC(=N)N)NC(=O)[C@H](CCC(=O)O)NC(=O)[C@H](CCCCNC(=O)COCCOCCNC(=O)COCCOCCNC(=O)CC[C@H](NC(=O)CCCCCCCCCCCCCCCCCCC(=O)O)C(=O)O)NC(=O)[C@H](Cc1ccc(O)cc1)NC(=O)[C@@H](NC(=O)[C@H](CO)NC(=O)[C@H](Cc1ccc(O)cc1)NC(=O)[C@H](CC(=O)O)NC(=O)[C@H](CO)NC(=O)[C@@H](NC(=O)[C@H](Cc1ccccc1)NC(=O)[C@@H](NC(=O)CNC(=O)[C@H](CCC(=O)O)NC(=O)C(C)(C)NC(=O)[C@@H](N)Cc1ccc(O)cc1)[C@@H](C)O)[C@@H](C)O)[C@@H](C)CC)C(=O)N[C@@H](C)C(=O)N[C@@H](C)C(=O)N[C@@H](CCC(N)=O)C(=O)N[C@@H](CCC(=O)O)C(=O)N[C@@H](Cc1ccccc1)C(=O)N[C@H](C(=O)N[C@@H](CC(N)=O)C(=O)N[C@@H](Cc1c[nH]c2ccccc12)C(=O)N[C@@H](CC(C)C)C(=O)N[C@@H](CC(C)C)C(=O)N[C@@H](C)C(=O)NCC(=O)NCC(=O)N1CCC[C@H]1C(=O)N[C@@H](CO)C(=O)N[C@@H](CO)C(=O)NCC(=O)N[C@@H](C)C(=O)N1CCC[C@H]1C(=O)N1CCC[C@H]1C(=O)N1CCC[C@H]1C(=O)N[C@@H](CO)C(N)=O)C(C)C [Compound 17] (H-Y[Aib]EGTFTSDYSIYK([AEEA-AEEA-γGlu-C20 diacid])ERIAAQEFVNWLLAGGPSSGAPPPS-NH2) | – | – | EC50 (human GIPR; [4]): 0.11 nM
3 | CC[C@H](C)[C@H](NC(=O)[C@H](CCCCNC(=O)COCCOCCNC(=O)COCCOCCNC(=O)CC[C@H](NC(=O)CCCCCCCCCCCCCCCCCCC(=O)O)C(=O)O)NC(=O)[C@H](CCC(=O)O)NC(=O)[C@H](CC(C)C)NC(=O)[C@H](Cc1ccc(O)cc1)NC(=O)[C@@H](NC(=O)[C@H](CO)NC(=O)[C@H](Cc1ccc(O)cc1)NC(=O)[C@H](CC(=O)O)NC(=O)[C@H](CO)NC(=O)[C@@H](NC(=O)[C@H](Cc1ccccc1)NC(=O)[C@@H](NC(=O)CNC(=O)[C@H](CCC(=O)O)NC(=O)C(C)(C)NC(=O)[C@@H](N)Cc1ccc(O)cc1)[C@@H](C)O)[C@@H](C)O)[C@@H](C)CC)C(=O)N[C@@H](C)C(=O)N[C@@H](C)C(=O)N[C@@H](CCC(N)=O)C(=O)N[C@@H](CCC(=O)O)C(=O)N[C@@H](Cc1ccccc1)C(=O)N[C@H](C(=O)N[C@@H](CC(N)=O)C(=O)N[C@@H](Cc1c[nH]c2ccccc12)C(=O)N[C@@H](CC(C)C)C(=O)N[C@H](C(=O)N[C@@H](C)C(=O)NCC(=O)NCC(=O)N1CCC[C@H]1C(=O)N[C@@H](CO)C(=O)N[C@@H](CO)C(=O)NCC(=O)N[C@@H](C)C(=O)N1CCC[C@H]1C(=O)N1CCC[C@H]1C(=O)N1CCC[C@H]1C(=O)N[C@@H](CO)C(N)=O)[C@@H](C)CC)[C@@H](C)CC [Compound 10] (H-Y[Aib]EGTFTSDYSIYLEK([AEEA-AEEA-γGlu-C20 diacid])IAAQEFINWLIAGGPSSGAPPPS-NH2) | – | – | EC50 (human GIPR; [4]): 0.056 nM
4 | CC[C@H](C)[C@H](NC(=O)[C@H](CCCNC(=N)N)NC(=O)[C@H](CCC(=O)O)NC(=O)[C@H](CCCCNC(=O)COCCOCCNC(=O)COCCOCCNC(=O)CC[C@H](NC(=O)CCCCCCCCCCCCCCCCCCC(=O)O)C(=O)O)NC(=O)[C@H](Cc1ccc(O)cc1)NC(=O)[C@@H](NC(=O)[C@H](CO)NC(=O)[C@H](Cc1ccc(O)cc1)NC(=O)[C@H](CC(=O)O)NC(=O)[C@H](CO)NC(=O)[C@@H](NC(=O)[C@H](Cc1ccccc1)NC(=O)[C@@H](NC(=O)CNC(=O)[C@H](CCC(=O)O)NC(=O)C(C)(C)NC(=O)[C@@H](N)Cc1ccc(O)cc1)[C@@H](C)O)[C@@H](C)O)[C@@H](C)CC)C(=O)N[C@@H](C)C(=O)N[C@@H](C)C(=O)N[C@@H](CCC(N)=O)C(=O)N[C@@H](CCC(=O)O)C(=O)N[C@@H](Cc1ccccc1)C(=O)N[C@H](C(=O)N[C@@H](CC(N)=O)C(=O)N[C@@H](Cc1c[nH]c2ccccc12)C(=O)N[C@@H](CC(C)C)C(=O)N[C@H](C(=O)N[C@@H](C)C(=O)NCC(=O)NCC(=O)N1CCC[C@H]1C(=O)N[C@@H](CO)C(=O)N[C@@H](CO)C(=O)NCC(=O)N[C@@H](C)C(=O)N1CCC[C@H]1C(=O)N1CCC[C@H]1C(=O)N1CCC[C@H]1C(=O)N[C@@H](CO)C(N)=O)[C@@H](C)CC)C(C)C [Compound 13] (H-Y[Aib]EGTFTSDYSIYK([AEEA-AEEA-γGlu-C20 diacid])ERIAAQEFVNWLIAGGPSSGAPPPS-NH2) | – | – | EC50 (human GIPR; [4]): 0.13 nM
5 | H-Y[Aib]EGTFTSDYSIYK([AEEA-AEEA-γGlu-C20‑OH])ERIAAQEFVNWLLAGGPSSGAPPPS-NH2 [compound 17# H-YAibEGTFTSDYSIYK(OEG-OEG-yGlu-C20-OH)ERIAAQEFVNWLLAGGPSSGAPPPS-NH2] | 0.022 | 0.11 | –
6 | H-Y[Aib]EGTFTSDYSIYK([AEEA-AEEA-γGlu-C20‑OH])EKIAAQEFVNWLLAGGPSSGAPPPS-NH2 [compound 18# H-YAibEGTFTSDYSIYK(OEG-OEG-yGlu-C20-OH)EKIAAQEFVNWLLAGGPSSGAPPPS-NH2] | 0.013 | 0.06 | –
7 | H-Y[Aib]EGTFTSDYSIYK([AEEA-AEEA-γGlu-C20‑OH])ERIAAQEFVNWLIAGGPSSGAPPPS-NH2 [compound 13# H-YAibEGTFTSDYSIYK(OEG-OEG-yGlu-C20-OH)ERIAAQEFVNWLIAGGPSSGAPPPS-NH2] | 0.017 | 0.13 | –
8 | H-Y[Aib]EGTFTSDYSIYK([AEEA-AEEA-γGlu-C20‑OH])ERIAAQEFINWLIAGGPSSGAPPPS-NH2 [compound 15# H-YAibEGTFTSDYSIYK(OEG-OEG-yGlu-C20-OH)ERIAAQEFINWLIAGGPSSGAPPPS-NH2] | 0.015 | 0.23 | –
9 | H-Y[Aib]EGTFTSDYSIYK([AEEA-AEEA-γGlu-C20‑OH])EKIAAQEFINWLLAGGPSSGAPPPS-NH2 [compound 16# H-YAibEGTFTSDYSIYK(OEG-OEG-yGlu-C20-OH)EKIAAQEFINWLLAGGPSSGAPPPS-NH2] | 0.029 | 0.095 | –
10 | H-Y[Aib]EGTFTSDYSIYK([AEEA-AEEA-γGlu-C20‑OH])EKIAAQEFVNWLIAGGPSSGAPPPS-NH2 [compound 12# H-YAibEGTFTSDYSIYK(OEG-OEG-yGlu-C20-OH)EKIAAQEFVNWLIAGGPSSGAPPPS-NH2] | 0.03 | 0.17 | –
11 | H-Y[Aib]EGTFTSDYSIYLEK([AEEA-AEEA-γGlu-C20‑OH])IAAQEFVNWLIAGGPSSGAPPPS-NH2 [compound 9# H-YAibEGTFTSDYSIYLEK(OEG-OEG-yGlu-C20-OH)IAAQEFVNWLIAGGPSSGAPPPS-NH2] | 0.049 | 0.04 | –
12 | H-Y[Aib]EGTFTSDYSIYK([AEEA-AEEA-γGlu-C20‑OH])EKIAAQEFINWLIAGGPSSGAPPPS-NH2 [compound 14# H-YAibEGTFTSDYSIYK(OEG-OEG-yGlu-C20-OH)EKIAAQEFINWLIAGGPSSGAPPPS-NH2] | 0.013 | 0.13 | –
13 | H-Y[Aib]EGTFTSDYSIYLEK([AEEA-AEEA-γGlu-C20‑OH])IAAQEFINWLIAGGPSSGAPPPS-NH2 [compound 10# H-YAibEGTFTSDYSIYLEK(OEG-OEG-yGlu-C20-OH)IAAQEFINWLIAGGPSSGAPPPS-NH2] | 0.065 | 0.056 | –
